Experimental data from patent publication US20200239594A1 (MINERVA BIOTECHNOLOGIES, published 2020).

T1: MUC1* extracellular domain peptide (PSMGFR, primary sequence of the MUC1 growth factor receptor)
T1 construct: Synthetic peptide adsorbed onto ELISA plates; The immunogen carried an extra C-terminal cysteine for KLH conjugation; also called MUC1* peptide; PSMGFR peptide
T1 peptide: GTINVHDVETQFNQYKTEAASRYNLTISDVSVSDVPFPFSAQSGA

B1: MIN-C2 Fab (papain digestion of MIN-C2 antibody) (Fab, V domains shown)
VH: EVQLEESGGGLVKPGGSLKLSCAASGFTFSGYAMSWVRQTPEKRLEWVATISSGGTYIYYPDSVKGRFTISRDNAKNTLYLQMSSLRSEDTAMYYCARLGGDNYYEYFDVWGAGTTVTVSS
VL: DIVITQSTASLGVSLGQRATISCRASKSVSTSGYSYMHWYQQRPGQPPKLLIYLASNLESGVPARFSGSGSGTDFTLNIHPVEEEDAATYYCQHSRELPFTFGGGTKLEIKR
notes: Enzymatic Fab of about 50 kD made by papain digestion of the parent mAb; also called monovalent form of MIN-C2
B2: MIN-C2 scFv (heavy chain variable-linker-light chain variable, C-terminal poly-histidine tag) (scFv)
scFv: EVQLEESGGGLVKPGGSLKLSCAASGFTFSGYAMSWVRQTPEKRLEWVATISSGGTYIYYPDSVKGRFTISRDNAKNTLYLQMSSLRSEDTAMYYCARLGGDNYYEYFDVWGAGTTVTVSSAKTTPPSVYGGGGSGGGGSGGGGSDIVITQSTASLGVSLGQRATISCRASKSVSTSGYSYMHWYQQRPGQPPKLLIYLASNLESGVPARFSGSGSGTDFTLNIHPVEEEDAATYYCQHSRELPFTFGGGTKLEIKRADAAPTVSVDHHHHHH
notes: part was further purified on a PSMGFR peptide column; also called scFv protein; recombinant scFv

Tests used:
[1] = target: T1, MUC1* extracellular domain peptide …; assay: competition ELISA, peptide on plate, competitor: parent MIN-C2 antibody
Procedure: To test the ability of the Fab produced by papain digestion to compete with the parent antibody for binding to the MUC1* peptide, varying concentrations of the Fab were added. After wash steps, the ELISA was processed by standard methods.

[2] = target: T1, MUC1* extracellular domain peptide …; assay: ELISA on plate-adsorbed peptide; reference: refolded scFv before peptide affinity chromatography

Row | Binder | binding result [1] | fold higher specific activity after antigen affinity purification [2] | fold improvement of specific binding after antigen affinity purification [2]
1 | B1 | binds | – | –
2 | B2 | – | ~10 fold | 10 fold
